Substrate: CC/C=C/C=C\CCCCCCCCO
Test: batch acetylation assay, Hanes-Woolf plot
Assay type: biochemical, Acinetobacter baylyi
Conditions: free enzyme in batch, before immobilization; co-substrate acetyl-CoA (300 µM in the preliminary time course); alcohol 1.25 µM-1.3 mM

B1: Acinetobacter wax synthase (atf, alcohol acetyl transferase; His6-tagged diacylglycerol acyl transferase) (Acinetobacter baylyi ADP1) (protein)
chain: MRPLHPIDFIFLSLEKRQQPMHVGGLFLFQIPDNAPDTFIQDLVNDIRISKSIPVPPFNNKLNGLFWDEDEEFDLDHHFRHIALPHPGRIRELLIYISQEHSTLLDRAKPLWTCNIIEGIEGNRFAMYFKIHHAMVDGVAGMRLIEKSLSHDVTEKSIVPPWCVEGKRAKRLREPKTGKIKKIMSGIKSQLQATPTVIQELSQTVFKDIGRNPDHVSSFQAPCSILNQRVSSSRRFAAQSFDLDRFRNIAKSLNVTINDVVLAVCSGALRAYLMSHNSLPSKPLIAMVPASIRNDDSDVSNRITMILANLATHKDDPLQRLEIIRRSVQNSKQRFKRMTSDQILNYSAVVYGPAGLNIISGMMPKRQAFNLVISNVPGPREPLYWNGAKLDALYPASIVLDGQALNITMTSYLDKLEVGLIACRNALPRMQNLLTHLEEEIQLFEGVIAKQEDIKTAN
notes: His6-tagged, pET23a, E. coli Rosetta(DE3)pLysS; Ni-NTA and gel filtration; tag kept; plasmid from S. Uthoff (Muenster)
  Km: 1.63 µM

Source: publication PMC3498290, “Mimicking Insect Communication: Release and Detection of Pheromone, Biosynthesized by an Alcohol Acetyl Transferase Immobilized in a Microreactor” (PLoS ONE, 2012)
